Results: paper PMC6856157

Target: V1N, hybrid peptide of the collagen domain (POG)8 and the cell penetrating peptide domain (RRG)2, without the FITC reporter
Assay: circular dichroism; V1N/siRNA complex in Milli-Q water, 90 uM V1N and 5 uM siRNA, equilibrated 30 min at 25 °C or 37 °C; positive peak at 224 nm

For “V1N, hybrid peptide of the collagen domain (POG)8 and the cell penetrating peptide domain (RRG)2, without the FITC reporter”, the stoichiometry N was 3.
